Reference: paper PMC10669680

Target: HIV-1 reverse transcriptase p51 (isolated polymerase domain) with the C38V/C280S/M357T substitutions, no affinity tag (HIV-1)
Experiment: SEC; Superdex 200 Increase 5/150, SEC buffer 50 mM Bis-Tris, 1 M NaCl, 1 mM CDTA, pH 6.5; samples 80% SEC buffer, 20% glycerol; [NaCl] varied 0.15-1.0 M and [p51] varied 10-80 µM; monomer to dimer

Q: For “HIV-1 reverse transcriptase p51 (isolated polymerase domain) with the C38V/C280S/M357T substitutions, no affinity tag (domain or fragment)”, which stoichiometry N is on record?
A: 2
